Test results from patent US20190365894A1 (GMAX BIOPHARM, published 2019).

T1: human endothelin A receptor (hETAR) (human, UniProt P25101 21-427)
T1 sequence: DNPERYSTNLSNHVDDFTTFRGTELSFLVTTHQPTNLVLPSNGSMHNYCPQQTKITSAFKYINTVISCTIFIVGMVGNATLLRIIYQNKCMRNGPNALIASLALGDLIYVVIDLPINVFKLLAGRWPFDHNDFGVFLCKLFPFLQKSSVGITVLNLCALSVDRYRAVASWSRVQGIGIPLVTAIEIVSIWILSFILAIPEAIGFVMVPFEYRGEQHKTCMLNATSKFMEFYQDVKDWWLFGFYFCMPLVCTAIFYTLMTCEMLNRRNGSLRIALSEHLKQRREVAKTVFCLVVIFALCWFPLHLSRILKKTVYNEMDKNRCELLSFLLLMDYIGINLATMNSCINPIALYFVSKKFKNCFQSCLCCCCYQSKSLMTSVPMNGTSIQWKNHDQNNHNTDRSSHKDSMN


Experiments:
[1] = target: T1, human endothelin A receptor (hETAR); assay: cell-based or functional assay
[2] = target: T1, human endothelin A receptor (hETAR); assay: FACS on CHO-DHFR-ETAR cells against CHO-DHFR- cells
Procedure: PBS containing 10 mM EDTA was used to detach and collect 10⁵ CHO-DHFR-hETAR cells into a 1.5 mL EP tube. The supernatant was removed after centrifugation and the negative control sample was resuspended with a loading buffer (PBS, 2% FBS). For the positive control, 200 μL antibody supernatant was added to resuspension cells and incubation at room temperature; the cells were then centrifuged at 1500 rpm to remove the supernatant, washed with a FACS loading buffer and centrifuged again. The cells were resuspended with addition (200 μL/well) of a FITC labeled goat anti-mouse fluorescent antibody at 1:50 dilution (BD Pharmingen) and incubated at room temperature for 30 min in the dark. Supernatant was removed after centrifugation, cells were washed with FACS loading buffer, centrifuged again and resuspended with the loading buffer for analysis.

calcium flux assay, inhibition of human ETAR (IC50) [1]	binding result [2]	Binder
–	binds	anti-ETAR antibody A-12 (antibody, V domains shown, also called L12H12) VH: EVKLVESGGRLVQPGNSLRLSCATSGFTFSDYYMSWVRQTPGRALEWLSFIRNRANGYTTEYSASVKGRFTISRDNSQSILYLHMSTLRPEDSATYYCVRDSYHYGYFDVWGAGTTVTVSS VL: EIQMTQTPSSLSASLGDRVTITCSASQGINNYLNWYQQKPGGKTRLLIYYTSTLQSGVPSRFSGSGSGTHYSLTISNLEPEDIATYYCQQFSKLRTFGGGTRLEIKR
–	binds	anti-ETAR antibody A-2 (antibody, V domains shown, also called L2H2) VH: QIQLVQSGAELAKPGASVRMSCETSGYTFTSYWIHWIKERPGQGLEWIGYINPDTDYSEYNQKFKDKARLTADKSSTTAYMELNSLTFDDSAVYYCASAGYYFFDFWGQGTTLTVSS VL: DIQMTQSPASLSTSVGETVTITCRASENIYSYLAWYQQRQGKSPHLLVNNAKTLAEGVPSRFSGSGSGTHFSLRISGLQPEDFGSYYCQHHYGIPFTFGGGTKLSIKR

More lines, now with the values behind:

Binder	calcium flux assay, inhibition of human ETAR (IC50) [1]	binding result [2]
anti-ETAR antibody A-9 (antibody, V domains shown) VH: EVQLQQPGGGLVQPGGSLTLSCATSGFTFSSYGMSWVRQTPAKRLELVATISTNGATANYPDSVKGRFTISRDNAKSTLYLQMRSLKSEDTAMYYCATEKGAMGYWGQGTSVTVSS VL: DVLMTQTPLSLPVSLGDQASISCRSSQNIVHSTGNTYLEWYLQKPGQSPKLLIYKVSNRFSGVPNRFRGSGSGTDFTLKITRVEAEDLGIYYCFQGSHFPFTFGSGTKLEIKR	87.8 nM	–
anti-ETAR antibody A-7 (antibody, V domains shown, also called L7H7) VH: EVHLVESGGGLVQPGGSLKLSCAASGFTFSTYGMSWVRQTPDKRLELVATINTNGGTTYYRDSVKGRFTISRDNAKNTLYLQMSSLKSDDTAMYYCARDYGAMDYWGQGTSVTVSS VL: DVLMTQTPLSLPVSLGDHASISCRSSQYIVHSTGTTYLEWYLQKPGQSPQLLIYKVSNRFSGVPDRFTGSGSGTDFTLRISRVEAEDLGVYFCFQGSHFPFTFGSGTKLEIKR	–	binds
anti-ETAR antibody A-1 (antibody, V domains shown) VH: QVTLKESGPGILQPSQTLSLTCSFSGFSLTTSGLGVAWIRQPSGKGLEWLAHIWSDGDTRYYPALKNRLTISKDSSSNQVFLKIARVDTADTATYYCARMKDDSLYFDNWGQGTIFTVSS VL: DILLTQSPAILSVSPGKRVSFSCRASQNIGTSIHWYQQRTNGSPRLLIKYASKSISGISSRFSGSGSGTDFTLSINSVESEDIAAYYCQHSYSWPWTFGGGTKLEIKR	37.9 nM	–
